The source of these data is article PMC11973759 (Journal for Immunotherapy of Cancer, 2025).

Where no end group is shown, it is not given here.

To fix the notation:
B2: biotinylated TAMpep (peptide)
chain: VLTTGLPALISWIKRKRQQ
modifications: also: biotin, position not given here

The target in the assay “biotinylated TAMpep” is B2. The assay is described as follows: SPR. Background: SPR reads the build-up and loss of mass on a sensor chip optically.
In assay [1] the target is CD18 cysteine-rich domain (Cloud-Clone). Briefly: SPR.

B1: CD18 I-domain (Cloud-Clone) (domain or fragment)
chain: GYPIDLYYLMDLSYSMLDDLRNVKKLGGDLLRALNEITESGRIGFGSFVDKTVLPFVNTHPDKLRNPCPNKEKECQPPFAFRHVLKLTNNSNQFQTEVGKQLISGNLDAPEGGLDAMMQVAACPEEIGWRNVTRLLVFATDDGFHFAGDGKLGAILTPNDGRCHLEDNLYKRSNEFDYPSVGQLAHKLAENNIQPIFAVTSRMVKTYEKLTEIIPKSAVGELSEDSSNVVHLIKNAYNKL
B1 gave a Kd with biotinylated TAMpep of 4.7 nM.

For the molecule B2, the Kd in assay [1] came out at 0.185 nM.

As usually defined, the Kd is the free concentration of one partner at which half of the binding sites on the other are occupied at equilibrium, for simple one-to-one binding.
